{
  "source": "patent US7592003B2",
  "about": "“Regulation of toll-like receptors on stem cells” (Oklahoma Medical Research Foundation, priority 2005, dated 2009)",
  "molecules": {"B1": {"name": "GM-CSF: Recombinant mouse GM-CSF, colony stimulating factor, 20 ng/ml (protein, UniProt P01587 18-141, looked up)", "Granulocyte-macrophage …": "APTRSPITVTRPWKHVEAIKEALNLLDDMPVTLNEEVEVVSNEFSFKKLTCVQTRLKIFEQGLRGNFTKLKGALNMTASYYQTYCPPTPETDCETQVTTYADFIDSLKTFLTDIPFECKKPGQK"}},
  "system": "LKS^− cells",
  "assay": "Serum-free culture of LKS- myeloid/erythroid progenitors (and CMP, GMP subsets), F4/80 by flow cytometry",
  "assay_type": "cell-based, mouse",
  "conditions": "72 h, no other growth factors",
  "protocol": "FIGS. 4A-D—Activation of TLRs through MyD88 bypasses normal differentiation cues and drives monocytes/macrophages differentiation of myeloid progenitors. (FIG. 4A) Sorted LKS^− cells from C57BL/6 or MyD88^−/− mice were stimulated with medium alone, LPS (10 μg/ml), Pam3CSK4 (1 μg/ml), M-CSF, or GM-CSF. After 72 h in culture, cells were analyzed by flow cytometry for expression of F4/80. Open histograms depict staining with the isotype matched Ab for F4/80. Percentages given in each histogram indicate the frequencies of F4/80^+ cells and the results are representative of three independent experiments. (FIG. 4B) The bar graph depicts yields, i.e., numbers of F4/80^+ cell recovered per input progenitor. Data represent mean values with standard deviations from triplicate cultures and the results are representative of three independent experiments (*P<0.005). […] After 72 h in culture, cells were analyzed by flow cytometry for expression of F4/80. […] After 24 or 48 h in culture, cells were analyzed by flow cytometry for expression of F4/80. […]\nFIG. 13—TLR stimulation causes rapid production of F4/80^+ cells from LKS^− cells. […] Stimulated wells were analyzed after 24 h or 48 h of culture by flow cytometry for expression of F4/80. […]",
  "data": [
    {"molecule": "B1", "values": [
      {"measurement": "Acquisition of F4/80 by LKS- cells", "value": "only a subset of LKS^− myeloid progenitors responded"}
    ]}
  ]
}
